Test results reported in patent US20250388643A1, “GLUCAGON-LIKE PEPTIDE-2 COMPOSITIONS AND METHODS OF MAKING AND USING SAME” (Amunix Pharmaceuticals, Inc., priority 2011, published 2025).

T1: GLP-2 receptor (GLP2 G-protein coupled receptor) on transfected GLP2R cell line (Millipore, Cat #HTS164C) (human, UniProt O95838 1-553)
T1 sequence (looked up): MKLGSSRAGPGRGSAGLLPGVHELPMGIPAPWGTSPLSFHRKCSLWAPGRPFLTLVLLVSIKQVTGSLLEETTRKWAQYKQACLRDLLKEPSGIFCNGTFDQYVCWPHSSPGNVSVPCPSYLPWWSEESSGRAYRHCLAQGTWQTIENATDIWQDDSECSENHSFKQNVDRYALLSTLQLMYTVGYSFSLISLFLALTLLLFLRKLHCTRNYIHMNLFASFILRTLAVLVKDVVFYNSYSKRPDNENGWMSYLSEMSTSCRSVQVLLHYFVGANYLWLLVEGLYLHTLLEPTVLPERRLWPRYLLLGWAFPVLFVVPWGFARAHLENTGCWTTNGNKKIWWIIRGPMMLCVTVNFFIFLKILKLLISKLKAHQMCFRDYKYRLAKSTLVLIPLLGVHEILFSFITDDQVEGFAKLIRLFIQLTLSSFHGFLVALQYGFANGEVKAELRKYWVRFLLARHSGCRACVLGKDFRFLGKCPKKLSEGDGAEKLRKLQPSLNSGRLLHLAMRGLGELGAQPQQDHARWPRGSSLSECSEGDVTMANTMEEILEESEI


Tests used:
[1] = Analytical size exclusion chromatography of XTEN fusion proteins with diverse payloads; format: physicochemical; conditions: SEC
Procedure: Size exclusion chromatography analyses were performed on fusion proteins containing various therapeutic proteins and unstructured recombinant proteins of increasing length. […] Chromatogram profiles were monitored using OD214 nm and OD280 nm. Column calibration for all assays were performed using a size exclusion calibration standard from BioRad; the markers include thyroglobulin (670 kDa), bovine gamma-globulin (158 kDa), chicken ovalbumin (44 kDa), equine myoglobuin (17 kDa) and vitamin B12 (1.35 kDa). […] Based on the SEC analyses for all constructs evaluated, the apparent molecular weights, the apparent molecular weight factor (expressed as the ratio of apparent molecular weight to the calculated molecular weight) and the hydrodynamic radius (RH in nm) are shown in Table 23. […] Accordingly, it is expected that fusion proteins comprising growth and XTEN have reduced renal clearance, contributing to increased terminal half-life and improving the therapeutic or biologic effect relative to a corresponding un-fused biologic payload protein.

[2] = biological target: T1, GLP-2 receptor (GLP2 G-protein coupled …); assay: cell-based or functional assay

| Molecule | hydrodynamic radius [1] | EC50 (calcium flux, FLIPR TETRA, GLP2R cell line) [2] | potency relative to GLP2-2G (calcium flux, GLP2R cell line) [2] |
| --- | --- | --- | --- |
| Glucagon-Y288: glucagon fused to unstructured polypeptide Y288 (protein) HSQGTFTSDYSKYLDSRRAQDFVQWLMNTGGEGSGEGSEGEGSEGSGEGEGSEGSGEGEGGSEGSEGEGGSEGSEGEGGSEGSEGEGSGEGSEGEGGSEGSEGEGSGEGSEGEGSEGGSEGEGGSEGSEGEGSGEGSEGEGGEGGSEGEGSEGSGEGEGSGEGSEGEGSEGSGEGEGSGEGSEGEGSEGSGEGEGSEGSGEGEGGSEGSEGEGSEGSGEGEGGEGSGEGEGSGEGSEGEGGGEGSEGEGSGEGGEGEGSEGGSEGEGGSEGGEGEGSEGSGEGEGSEGGSEGEGSEGGSEGEGSEGSGEGEGSEGSGE | ≥ 7 nm | – | – |
| GLP2-2G-XTEN_AE864 fusion protein (ligand) HGDGSFSDEMNTILDNLAARDFINWLIQTKITDGGSPAGSPTSTEEGTSESATPESGPGTSTEPSEGSAPGSPAGSPTSTEEGTSTEPSEGSAPGTSTEPSEGSAPGTSESATPESGPGSEPATSGSETPGSEPATSGSETPGSPAGSPTSTEEGTSESATPESGPGTSTEPSEGSAPGTSTEPSEGSAPGSPAGSPTSTEEGTSTEPSEGSAPGTSTEPSEGSAPGTSESATPESGPGTSTEPSEGSAPGTSESATPESGPGSEPATSGSETPGTSTEPSEGSAPGTSTEPSEGSAPGTSESATPESGPGTSESATPESGPGSPAGSPTSTEEGTSESATPESGPGSEPATSGSETPGTSESATPESGPGTSTEPSEGSAPGTSTEPSEGSAPGTSTEPSEGSAPGTSTEPSEGSAPGTSTEPSEGSAPGTSTEPSEGSAPGSPAGSPTSTEEGTSTEPSEGSAPGTSESATPESGPGSEPATSGSETPGTSESATPESGPGSEPATSGSETPGTSESATPESGPGTSTEPSEGSAPGTSESATPESGPGSPAGSPTSTEEGSPAGSPTSTEEGSPAGSPTSTEEGTSESATPESGPGTSTEPSEGSAPGTSESATPESGPGSEPATSGSETPGTSESATPESGPGSEPATSGSETPGTSESATPESGPGTSTEPSEGSAPGSPAGSPTSTEEGTSESATPESGPGSEPATSGSETPGTSESATPESGPGSPAGSPTSTEEGSPAGSPTSTEEGTSTEPSEGSAPGTSESATPESGPGTSESATPESGPGTSESATPESGPGSEPATSGSETPGSEPATSGSETPGSPAGSPTSTEEGTSTEPSEGSAPGTSTEPSEGSAPGSEPATSGSETPGTSESATPESGPGTSTEPSEGSAPG | – | 0.37 µM | ~2% |
